# According to article PMC5546038, “Engineering the fragment crystallizable (Fc) region of human IgG1 multimers and monomers to fine-tune interactions with sialic acid-dependent receptors” (The Journal of Biological Chemistry, 2017):
# Changes are numbered by the printed parent chain. In names and notes the source's numbering stands.
# B1: hexa-Fc N297A/N563A (other)
# chain: DKTHTCPPCPAPELLGGPSVFLFPPKPKDTLMISRTPEVTCVVVDVSHEDPEVKFNWYVDGVEVHNAKTKPREEQYASTYRVVSVLTVCLQDWLNGKEYKCKVSNKALPAPIEKTISKAKGQPREPQVYTLPPSRDELTKNQVSLTCLVKGFYPSDIAVEWESNGQPENNYKTTPPVLDSDGSFFLYSKLTVDKSRWQQGNVFSCSVMHEALHNHYTQKSLSLSPGKLVLGPTLYAVSLVMSDTAGTCY
# modifications: no N-glycans; multimer, approximately dodecamers of Fc / no N-glycans; multimer, approximately dodecamers of Fc
# B2: hexa-Fc D221N/N297A/N563A (other)
# chain: B1 chain with D1N
# modifications: N-linked glycan at Asn-221
# Experiments:
# hexa-Fc N297A/N563A = target: T1, hexa-Fc N297A/N563A (human); test: SEC + other: non-reducing SDS-PAGE; molecular mass ∼650–700 kDa; SEC shown for N563A (supplemental Fig. S2); sizes counted in Fc units of two chains; conditions: both partners purified
# T1 chain: B1 chain
# [1] = target: the molecule itself; test: as above
Binder,stoichiometry N (hexa-Fc N297A/N563A),stoichiometry N [1]
B1,~12,
B2,,~12
